From patent US5843648
Blank lines part the entries; values can stand above or below the substance they belong to.

Legend:
[1] = biological target: gp75 presented by HLA-A31 (COS cells transfected with gp75 plus HLA-A31) (human) (UniProt P17643)
[2] = biological target: p15 presented by HLA-A24 (293-A24 or COS-7 cells transfected with the p15 cDNA and HLA-A24) (human)
[3] = biological target: gp75 with HLA-A24 (COS-7 cells transfected with gp75 + HLA-A24) (human) (UniProt P17643)
[4] = biological target: MART-1 with HLA-A24 (COS-7 cells transfected with MART-1 + HLA-A24) (human) (UniProt Q16655)
[5] = biological target: tyrosinase presented by HLA-A24 (COS-7 cells transfected with tyrosinase + HLA-A24) (human)
[6] = biological target: gp100 with HLA-A24 (COS-7 cells transfected with gp100 + HLA-A24) (human) (UniProt P40967)
[7] = biological target: gp100 presented by HLA-A2 (COS cells transfected with gp100 plus HLA-A2) (human) (UniProt P40967)
[8] = biological target: MART-1 presented by HLA-A2 (COS cells transfected with MART-1 plus HLA-A2) (human) (UniProt Q16655)
[9] = biological target: p15 10-18 peptide … presented by HLA-A24 on 888 EBV B cells (human)
[10] = biological target: p15 9-18 peptide … presented by HLA-A24 on 888 EBV B cells (human)
[11] = biological target: p15 10-18 peptide … presented by HLA-A24 on 888 EBV B cells (human); remark: listed apart in the source
[12] = biological target: p15 9-18 peptide … presented by HLA-A24 on 888 EBV B cells (human); remark: listed apart in the source
[13] = biological target: Clone 1 (full length p15 RT-PCR product from 888 EBV B cells) presented by HLA-A24 on COS-7 cells (human)
[14] = biological target: β-gal with HLA-A24 (COS-7 cells transfected with β-gal + HLA-A24) (human)
[15] = biological target: Clone 2 (truncated p15 RT-PCR product from 888 EBV B cells) presented by HLA-A24 on COS-7 cells (human)
[16] = biological target: tyrosinase peptide T10209 (…) on HLA-A24+ 888 EBVB cells (human)
[17] = biological target: tyrosinase peptide T10213 (…) on HLA-A24+ 888 EBVB cells (human)
[18] = biological target: tyrosinase peptide T10180 (…) on HLA-A24+ 888 EBVB cells (human)
[19] = biological target: tyrosinase peptide T10206 (…) presented by HLA-A24 on 888 EBVB cells (human)
[20] = biological target: tyrosinase peptide T10199 (…) on HLA-A24+ 888 EBVB cells (human)
[21] = biological target: tyrosinase peptide T10166 (…) on HLA-A24+ 888 EBVB cells (human)
[22] = biological target: tyrosinase peptide T9181 (…) on HLA-A24+ 888 EBVB cells (human)
[23] = biological target: tyrosinase peptide T9177 (…) on HLA-A24+ 888 EBVB cells (human)
[24] = biological target: tyrosinase peptide T9206 (…) presented by HLA-A24 on 888 EBVB cells (human)
[25] = biological target: tyrosinase peptide T9199 (…) on HLA-A24+ 888 EBVB cells (human)
[26] = biological target: tyrosinase peptide T9180 (…) on HLA-A24+ 888 EBVB cells (human)
[27] = biological target: tyrosinase presented by HLA-A24 (COS-7 cells transfected with tyrosinase + HLA-A24) (human); remark: listed apart in the source
[28] = biological target: β-gal with HLA-A24 (COS-7 cells transfected with β-gal + HLA-A24) (human); remark: listed apart in the source

Substance: TIL 888 (cells without a defined receptor)
GM-CSF [2]: 60 pg/mL
GM-CSF [3]: 130 pg/mL
GM-CSF [4]: 140 pg/mL
GM-CSF [5]: 1500 pg/mL
GM-CSF [6]: 120 pg/mL

Substance: TIL 1200 (cells without a defined receptor)
GM-CSF [7]: 1500 pg/mL

Substance: TIL 1235 (cells without a defined receptor)
GM-CSF [8]: 1800 pg/mL

Substance: TIL 1290 (cells without a defined receptor)
GM-CSF [2]: 400 pg/mL
minimum peptide concentration sensitizing 888 EBV B cells for lysis (51Cr release) [9]: 1 ng/mL
minimum peptide concentration stimulating significant GM-CSF release [9]: 10 ng/mL
minimum peptide concentration sensitizing 888 EBV B cells for lysis (51Cr release) [10]: 10 ng/mL
minimum peptide concentration stimulating significant GM-CSF release [10]: 10 ng/mL
GM-CSF (pg/ml) at 10 ug/ml peptide [11]: 910 pg/mL
GM-CSF (pg/ml) at 10 ug/ml peptide [12]: 780 pg/mL
GM-CSF (pg/ml), Expt. 1 and Expt. 2 [13]: 740 pg/mL
GM-CSF (pg/ml), Expt. 1 and Expt. 2 [14]: 40 pg/mL
GM-CSF (pg/ml), Expt. 1 and Expt. 2 [15]: 300 pg/mL
GM-CSF [3]: 20 pg/mL
GM-CSF [4]: 20 pg/mL
GM-CSF [5]: 20 pg/mL
GM-CSF [6]: 10 pg/mL

The remaining lines, values ahead:

GM-CSF [1]: 770 pg/mL
Substance: TIL 586 (cells without a defined receptor)

% Specific Lysis (E:T 40:1) and GM-CSF (pg/ml) (% specific lysis) [16]: 0
% Specific Lysis (E:T 40:1) and GM-CSF (pg/ml) (% specific lysis) [17]: 1
% Specific Lysis (E:T 40:1) and GM-CSF (pg/ml) (% specific lysis) [18]: 1
% Specific Lysis (E:T 40:1) and GM-CSF (pg/ml) (% specific lysis) [19]: 20
% Specific Lysis (E:T 40:1) and GM-CSF (pg/ml) (% specific lysis) [20]: 1
% Specific Lysis (E:T 40:1) and GM-CSF (pg/ml) (% specific lysis) [21]: -1
% Specific Lysis (E:T 40:1) and GM-CSF (pg/ml) (% specific lysis) [22]: -1
% Specific Lysis (E:T 40:1) and GM-CSF (pg/ml) (% specific lysis) [23]: 0
% specific lysis (E:T 40:1) (% specific lysis) [24]: 26
% Specific Lysis (E:T 40:1) and GM-CSF (pg/ml) (% specific lysis) [25]: 0
% Specific Lysis (E:T 40:1) and GM-CSF (pg/ml) (% specific lysis) [26]: 2
GM-CSF Secretion [27]: 292 pg/mL
GM-CSF Secretion [28]: 30 pg/mL
Substance: TIL 1413 (cells without a defined receptor)
